Source: patent publication US20240254223A1 (NOVIMMUNE, published 2024)

T1: high affinity trimeric IL-2R (IL-2Rα, IL-2Rβ and IL-2Rγ) on HEK-Blue IL-2 cells (UniProt P01589 22-272; P14784 27-551; P31785 23-369)
T1 sequence (looked up) 1: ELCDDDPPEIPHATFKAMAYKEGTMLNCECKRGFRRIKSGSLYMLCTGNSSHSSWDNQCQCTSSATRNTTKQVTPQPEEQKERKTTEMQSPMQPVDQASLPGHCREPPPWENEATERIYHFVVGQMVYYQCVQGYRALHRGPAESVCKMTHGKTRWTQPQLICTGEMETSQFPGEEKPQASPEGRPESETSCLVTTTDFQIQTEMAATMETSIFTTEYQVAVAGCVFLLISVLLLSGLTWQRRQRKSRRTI
T1 sequence (looked up) 2: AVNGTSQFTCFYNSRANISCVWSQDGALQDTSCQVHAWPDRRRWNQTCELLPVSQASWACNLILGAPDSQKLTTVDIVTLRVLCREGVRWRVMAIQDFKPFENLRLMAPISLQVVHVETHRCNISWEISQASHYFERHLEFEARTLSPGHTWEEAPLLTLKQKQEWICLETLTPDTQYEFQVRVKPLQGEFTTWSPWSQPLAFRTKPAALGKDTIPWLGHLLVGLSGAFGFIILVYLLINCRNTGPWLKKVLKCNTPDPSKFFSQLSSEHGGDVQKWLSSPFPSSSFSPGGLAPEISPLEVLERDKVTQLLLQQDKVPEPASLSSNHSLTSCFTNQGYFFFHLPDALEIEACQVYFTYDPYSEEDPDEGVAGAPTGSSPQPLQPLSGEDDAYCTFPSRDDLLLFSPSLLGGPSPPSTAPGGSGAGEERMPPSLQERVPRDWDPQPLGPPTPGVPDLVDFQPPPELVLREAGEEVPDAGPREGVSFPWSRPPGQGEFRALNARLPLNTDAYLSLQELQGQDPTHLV
T1 sequence (looked up) 3: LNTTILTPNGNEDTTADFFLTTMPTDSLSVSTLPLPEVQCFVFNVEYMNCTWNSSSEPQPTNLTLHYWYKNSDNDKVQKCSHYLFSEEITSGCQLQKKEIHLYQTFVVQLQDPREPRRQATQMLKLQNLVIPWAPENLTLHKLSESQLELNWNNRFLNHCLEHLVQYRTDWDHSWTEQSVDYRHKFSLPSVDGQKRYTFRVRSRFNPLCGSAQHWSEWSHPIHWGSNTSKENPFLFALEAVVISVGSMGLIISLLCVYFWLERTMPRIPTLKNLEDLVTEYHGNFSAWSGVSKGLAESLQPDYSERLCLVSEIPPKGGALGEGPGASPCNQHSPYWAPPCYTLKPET

T2: low-moderate affinity dimeric IL-2R (IL-2Rβ and IL-2Rγ) on HEK-Blue CD122/CD132 cells (UniProt P14784 27-551; P31785 23-369, limits assumed)
T2 sequence (looked up) 1: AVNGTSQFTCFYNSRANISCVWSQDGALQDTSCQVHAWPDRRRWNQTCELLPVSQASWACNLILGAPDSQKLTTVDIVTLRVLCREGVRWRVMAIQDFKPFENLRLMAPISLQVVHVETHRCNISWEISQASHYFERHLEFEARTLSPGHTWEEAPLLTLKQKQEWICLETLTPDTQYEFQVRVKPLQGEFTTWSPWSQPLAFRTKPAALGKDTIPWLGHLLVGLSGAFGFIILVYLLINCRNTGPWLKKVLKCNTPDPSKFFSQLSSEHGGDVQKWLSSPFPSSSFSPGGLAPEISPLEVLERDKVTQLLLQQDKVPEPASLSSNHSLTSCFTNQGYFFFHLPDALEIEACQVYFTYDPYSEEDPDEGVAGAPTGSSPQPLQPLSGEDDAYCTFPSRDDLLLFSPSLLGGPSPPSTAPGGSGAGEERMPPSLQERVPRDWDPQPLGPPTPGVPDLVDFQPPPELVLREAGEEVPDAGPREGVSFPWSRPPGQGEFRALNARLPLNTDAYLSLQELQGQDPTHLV
T2 sequence (looked up) 2: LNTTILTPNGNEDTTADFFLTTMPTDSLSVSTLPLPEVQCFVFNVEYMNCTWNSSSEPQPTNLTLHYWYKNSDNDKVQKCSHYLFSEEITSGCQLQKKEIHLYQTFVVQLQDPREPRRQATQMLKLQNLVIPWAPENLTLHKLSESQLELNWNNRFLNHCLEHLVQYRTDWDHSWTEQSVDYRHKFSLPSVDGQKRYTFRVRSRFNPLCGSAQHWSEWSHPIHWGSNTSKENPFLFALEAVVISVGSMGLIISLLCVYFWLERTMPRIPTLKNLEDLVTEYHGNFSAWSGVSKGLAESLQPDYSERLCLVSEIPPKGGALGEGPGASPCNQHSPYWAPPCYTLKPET


Columns and labels:
[1] = molecular target: T1, high affinity trimeric IL-2R (IL-2Rα, …); experiment: cell-based or functional assay
[2] = molecular target: T2, low-moderate affinity dimeric IL-2R …; experiment: cell-based or functional assay
[3] = molecular target: T3, CD47 at the surface of Peak cells (human, UniProt Q08722 19-323); experiment: flow cytometry, Peak cells, after MMP-9 treatment
T3 construct: whole, on cells; also called cell surface CD47
Description: Binding activity of antibody-cytokine/receptor fusions before and after cleavage was also evaluated by flow cytometry. Peak cells derived from HEK 293 which are human cells expressing CD47 were used to evaluate masking efficacy and binding recovery to CD47 by flow cytometry. Peak cells were diluted in cold FACS buffer (PBS, 2% BSA) to 1.2×10⁶ cells/mL. 3×10⁵ cells/well were added in a 96 well V-bottom plate. The plate was then centrifugated for 5 min at 1300 rpm, 4° C. Supernatants were removed and cells were washed twice using FACS buffer. A serial dilution of antibody-cytokine/receptor fusions previously digested with MMP-9 or not digested as described above was prepared in FACS buffer. An irrelevant antibody was included. Then, 150 μL of each diluted antibody were added in corresponding well and incubated for 30 min at 4° C. Cells were washed twice with FACS buffer and 100 μL of a mouse anti human Fc-PE conjugated secondary antibody were added and the plate was incubated for 20 min at 4° C. Cells were then washed twice with FACS buffer. Finally, 150 μL of SYTOX blue dead cell stain (ThermoFisher) diluted to 1/5000 in FACS buffer were added before detection by flow cytometry with Cytoflex (Beckman Coulter). Acquisition was performed with 10000 events for each well. Data were analyzed by FlowJo software.

[4] = molecular target: T4, His-tagged human CD47 (human, UniProt Q08722 19-139, limits assumed); experiment: BLI, His-CD47 on HIS1K sensor, after MMP-9 treatment
T4 construct: loaded on HIS1K biosensors at 2.5 µg/mL; also called target antigen; not shown: His tag
Description: (§1) The capacity of the masking domains to inhibit binding activity of the antibody was evaluated by Bio-Layer Interferometry (BLI). […] Binding experiments were performed to evaluate the masking efficiency and the binding recovery after cleavage of the masking domains. BLI was performed on an Octet RED96 system (Sartorius). His-tagged human CD47 was diluted at 2.5 μg/mL in Kinetic Buffer (KB) (Sartorius) and loaded on HIS1K biosensors (anti-His tag antibody biosensors, Sartorius) for 300 seconds. Loaded biosensors were dipped into antibodies diluted at 15 μg/mL in KB for 300 seconds to monitor association. Then, biosensors were transferred in KB for dissociation for 60 seconds. Binding profiles were then analyzed with ForteBio Data Analysis software.

[5] = molecular target: T4, His-tagged human CD47; experiment: BLI, His-CD47 on HIS1K sensor, antibody 15 µg/mL
Description: as §1

EC50 after cleavage IL-2, HEK Blue IL-2 αβγ reporter assay [1] [nM]	EC50 after cleavage IL-2, HEK Blue IL-2 βγ reporter assay [2] [nM]	EC50 [3] [nM]	Binding after cleavage (BLI) [4] [nm]	Binding before cleavage (BLI) [5] [nm]	Binder
0.02	0.01	0.2	1.7		Construct No 41 after cleavage by MMP-9 (antibody, MMP-9 digest of m8; the sample also holds the released IL-2 and IL-2Rα; also called n41 after cleavage; not shown: remnant of CM1 and linker after MMP-9 cleavage) light: DIQMTQSPSSLSASVGDRVTITCNVDQVIANWLNWYQQKPGKAPKLLIYAASSLQSGVPSRFSGSGSGTDFTLTISSLQPEDFATYYCQQMHPRAPKQFGQGTKVEIKRTVAAPSVFIFPPSDEQLKSGTASVVCLLNNFYPREAKVQWKVDNALQSGNSQESVTEQDSKDSTYSLSSTLTLSKADYEKHKVYACEVTHQGLSSPVTKSFNRGEC heavy: not shown
0.04	0.02	2.6	1.1		Construct No 880 after cleavage by MMP-9 (antibody, MMP-9 digest of m34; the sample also holds the released IL-2Rγ-(GGGGS)2-IL-2 fusion (no cleavable linker between the two) and IL-2Rα; also called n880 after cleavage; not shown: remnant of CM1 and linker after MMP-9 cleavage) light: DIQMTQSPSSLSASVGDRVTITCNVDQVIANWLNWYQQKPGKAPKLLIYAASSLQSGVPSRFSGSGSGTDFTLTISSLQPEDFATYYCQQMHPRAPKQFGQGTKVEIKRTVAAPSVFIFPPSDEQLKSGTASVVCLLNNFYPREAKVQWKVDNALQSGNSQESVTEQDSKDSTYSLSSTLTLSKADYEKHKVYACEVTHQGLSSPVTKSFNRGEC heavy: not shown
				2.2	pNOVI V2K K91_IL-2 CM1_CM2_VHCH (antibody, human IgG1, kappa, masked K91 fusion, uncleaved; also called n17; construct No 17) light: DIQMTQSPSSLSASVGDRVTITCNVDQVIANWLNWYQQKPGKAPKLLIYAASSLQSGVPSRFSGSGSGTDFTLTISSLQPEDFATYYCQQMHPRAPKQFGQGTKVEIKRTVAAPSVFIFPPSDEQLKSGTASVVCLLNNFYPREAKVQWKVDNALQSGNSQESVTEQDSKDSTYSLSSTLTLSKADYEKHKVYACEVTHQGLSSPVTKSFNRGEC heavy: not shown
0.04	0.03	1	1.5		Construct No 676 after cleavage by MMP-9 (antibody, MMP-9 digest of m23; the sample also holds the released IL-2Rα-(GGGGS)2-IL-2 fusion (no cleavable linker between the two) and IL-2Rβ; also called n676 after cleavage; not shown: remnant of CM1 and linker after MMP-9 cleavage) light: DIQMTQSPSSLSASVGDRVTITCNVDQVIANWLNWYQQKPGKAPKLLIYAASSLQSGVPSRFSGSGSGTDFTLTISSLQPEDFATYYCQQMHPRAPKQFGQGTKVEIKRTVAAPSVFIFPPSDEQLKSGTASVVCLLNNFYPREAKVQWKVDNALQSGNSQESVTEQDSKDSTYSLSSTLTLSKADYEKHKVYACEVTHQGLSSPVTKSFNRGEC heavy: not shown
0.01	0.01		1.7		Construct No 830 after cleavage by MMP-9 (antibody, MMP-9 digest of m27 (K33); the sample also holds the released IL-2Rα, IL-2 and IL-2Rβ; also called n830 after cleavage; not shown: remnant of CM1 and linker after MMP-9 cleavage) light: DIQMTQSPSSLSASVGDRVTITCRASQSISSYLNWYQQKPGKAPKLLIYAASSLQSGVPSRFSGSGSGTDFTLTISSLQPEDFATYYCQQFHKRSPQKFGQGTKVEIKRTVAAPSVFIFPPSDEQLKSGTASVVCLLNNFYPREAKVQWKVDNALQSGNSQESVTEQDSKDSTYSLSSTLTLSKADYEKHKVYACEVTHQGLSSPVTKSFNRGEC heavy: not shown
				1.3	pNOVI V2K K33 (antibody, human IgG1, kappa, also called n22; construct No 22) light: DIQMTQSPSSLSASVGDRVTITCRASQSISSYLNWYQQKPGKAPKLLIYAASSLQSGVPSRFSGSGSGTDFTLTISSLQPEDFATYYCQQFHKRSPQKFGQGTKVEIKRTVAAPSVFIFPPSDEQLKSGTASVVCLLNNFYPREAKVQWKVDNALQSGNSQESVTEQDSKDSTYSLSSTLTLSKADYEKHKVYACEVTHQGLSSPVTKSFNRGEC heavy: not shown
